Results: the supplement of paper PMC9170038

test system: MS2 coat protein; assay: apparent KD of MS2 coat protein, switch OFF state (with FMN for OFF switches, without FMN for ON switches); designed switch direction (-1 OFF switch, 1 ON switch): -1; higher = weaker reporter binding; conditions: FMN input: 0 or 200 uM; Eterna round: R93 (includes R88 designs)
Summary of the method: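 For every design, apparent KD is the median of normalised binding-curve fits from its clusters. The RNA switches were transcribed on-chip from Illumina sequencing clusters and titrated with SNAP-549-labelled MS2 coat protein (twofold steps, 0.7 or 1.5 nM to 3 µM; 0.8–1.5 h to 10–20 min per step). Titrations used 100 mM Tris-HCl pH 7.5, 80 mM KCl, 4 mM MgCl2, without or with constant ligand.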

Sequence	apparent KD of MS2 coat protein [nM]
AAAAAACAUGAGGAUCACCCAUGUGAGGAUAUCUGUAUCCAAAAGGAAGUGUAGGAUCGGAGAAGGCACUAGGA [Banishment 1 - Jieux - Exclusion 1]	52.3
GCUUGUCAAGGAUAUACAUGAGGAUCACCCAUGUGAGAGAAAAAAGUGAGAAAGAAAAGUAGAAGGUGGUGAGG [salish99-ex3-78]	46.6
GAAAAACAUGAGGAUCACCCAUGUUAGGAUAUGCUAUGGAAAAAUAAAAUAAAACAUAGCAGAAGGGACAAAAG [Mat - Exclusion 1 - Eli mod - D29]	88.5
AAAAAACAUGAGGAUCACCCAUGUGAGGAUAUGAACGAAAUAAAAUAAAAAUAAAAGUUCAGAAGGCACAAAAA [Mat - Exclusion 1 - Eli mod - D11]	44.7
AAGAAGUAAGGAUAUGCUGCUCGUCACAAAAGUGAUGAGUAGCAGAAGGUACAUGAGGAUCACCCAUGUUAAGA [JL eternac mod 4]	20.6
AGAAAGCGAGGAUAUGCUCGGGUUGAAUGACGAGAGAAUACACAUGAGGAUCACCCAUGUAGAAGGUGUAUAAA [JR_Exc002_Sub1712]	35.1
ACUUGACAUGAGGAUCACCCAUGUCAGGAUAUAGUACGACAAAUAAAUAAAAGUUCUACUAGAAGGGAUAUGGA [Amethyst 53]	15.5
AGUUGGCGAGGAUAUACAUGAGGAUCACCCAUGUAAAAUAAAUAAAAAGGGAAAAAGAGUAGAAGGCGCUGACA [73%, Moding Norbert Elias, 8]	192
AAAAAGGGAGGAUAUGCAAAAAAAAAAAAAAAAAAAAAAAAACAUGAGGAUCACCCAUGUAGAAGGCCCAAAAA [Dora Baggins - Jieux - Exclusion 2]	34.4
AACAGGUCAGGAUAUGUGGAAAAAAUAAAAAAAAUAAAAACACAGAAGGGACAUGAGGAUCACCCAUGUAUAUA [May 21]	53.4
GGAUGUCAAGGAUAUACAUGAGGAUCACCCAUGUGAGAGAAAAAAGUGAGAAAGAAAAGUAGAAGGUGGUGUCG [salish99-ex3-87]	56.1
AAAAAUGGAGGAUAUACAUGAGGAUCACCCAUGUGUAUAAAAAAAUACACAAAAGAAAGUAGAAGGCCAUAAAA [Ex 3 Ice]	94.3
AAAGGACAUGAGGAUCACCCAUGUGAGGAUAUCGGAAAAGGAAAAAUAAAAAAGAAGACGAGAAGGCACACCAA [Mat - Exclusion 1 - Eli mod - D76]	59.8
AAGAAGUCAGGAUAUGCUGCUCGUCACUUGCGUGAUGAGUAGCAGAAGGGACAUGAGGAUCACCCAUGUAAAGA [Exclusion4-cac2]	65.6
AGCUAGUCAGGAUAUACGAACAGGUCAAAAGACUUGAAGGGACAUGAGGAUCACCCAUGUAGAAGGGACUAGCA [Mat - Exclusion 2 - JL mod - D25]	128
AGCUAGUCAGGAUAUACGAACAUGUCACAAGACGUGAAGGGACAUGAGGAUCACCCAUGUAGAAGGGACUAGCA [74%, Web mod - With 1 more C's]	203
AAAAAGAUAGGAUAUACGUACAUGUCAAAAGACGUGAAGGGACAUGAGGAUCACCCAUGUAGAAGGGUUAAAAA [JL Wide Open 41]	45.3
AAAGUGUGAGGAUAUGUCAAAGGACACGAAAGUGACAAAGGACAGAAGGUACAUGAGGAUCACCCAUGUAAAAA [milkweed 18]	20.6
AACAGUACAGGAUAUACAUGAGGAUCACCCAUGUGAGAAUUAAGUGGCGUACCACAAAGUAGAAGGGUACUGGA [Maslow Revisited]	173
AGGAAACAUGAGGAUCACCCAUGUGAGGAUAUAGAAAAGAAAAGAAAAGAAAGAAGAACUAGAAGGUACAAGAA [Menkauhor Kaiu]	26.8
UAUAGACAUGAGGAUCACCCAUGUGAGGAUAUCGGUAACUACAAAACAUCACAUACAACGAGAAGGCACAGAAA [JR_Exc001_Sub013]	35.1
AAUAUGUCAGGAUAUGUGUAAAGAAUAAAAGAAAUAACAACACAGAAGGGACAUGAGGAUCACCCAUGUCAACA [May 33]	18

Sequence	apparent KD of MS2 coat protein [nM]
ACAAAACAUGAGGAUCACCCAUGUGAGGAUAUGCGAAACAAACAAACAAACAAACAAAGCAGAAGGCACAACAA [Ex 1 Tesla 3]	31
AACAAGUCAGGAUAUCCGAAAAGUAAAUAAGUAAAACAAAAGGAGAAGGGACAUGAGGAUCACCCAUGUAAAUA [JR_Exc004_Sub015]	27.2
AAAAAGGUAGGAUAUACGAAAAAAAAAGGUGAAAAAAAAAAACAUGAGGAUCACCCAUGUAGAAGGACCAAAAA [Ex 2 sub 1 70% 2]	76.7
AAGUGCGCAGGAUAUACAUGAGGAUCACCCAUGUAAAGAAAAGAAAGAUCCGAAGAAAGUAGAAGGGCGUGCAA [Variant 1 of Mod 1 of Ex3 sub 3, by Tesla's Dusciple Round 1]	209
AAGAAGUGAGGAUAUGUCUGUGCGAAAAAAAAAAAGUGCAGACAGAAGGCACAUGAGGAUCACCCAUGUAAAAA [Florian 65% 2]	48.1
GAGAAGUUAGGAUAUGCGGAGGGAAGGAAGGAAAGGGAAGGGCAGAAGGAACAUGAGGAUCACCCAUGUAAGAG [salish99-ex4-02]	25.3
AGCUAGUCAGGAUAUACAAAAUGAUUGCAAAAGCAAUCAACACAUGAGGAUCACCCAUGUAGAAGGGACUAGCA [Mat - Exclusion 2 - JL-Eli mod - D44]	19.4
AACAGUACAGGAUAUACAUGAGGAUCACCCAUGUAAAAUAAAUAAAAAUAAAAGGGAAGUAGAAGGGUACUGGA [Moding Maslow revisited (73) 17]	46.5
AAUGGUGCAGGAUAUACAUGAGGAUCACCCAUGUAGAUCAGACAUAUGGUCGAAACAUGUAGAAGGGCACCAAA [Ex 3May 54]	319
AAGAAGUAAGGAUAUCGUGCUCGUCACAAAAGUGAUGAGUACGAGAAGGUACAUGAGGAUCACCCAUGUAAAGA [Opal 35]	21.9
AAAAAACAUGAGGAUCACCCAUGUGAGGAUAUACUAAACAAAAAAAACAAAAACAAAUGUAGAAGGCACAAAAA [Amethyst 36]	23
CCUCGACAUGAGGAUCACCCAUGUUAGGAUAUAUACAAACCCGAAAACCAAGGGCAAAAUAGAAGGAACGUGCA [Masoedma]	19.2
AACAGUACAGGAUAUACAUGAGGAUCACCCAUGUAAAAAUAAAAGGGCGUACCACAAAGUAGAAGGGUACUGGA [Moding Maslow revisited (73) 12]	34
CUCAAGUUAGGAUAUACAAGAAAAGAAGAGAAAGAAAAGAAGUAGAAGGAACAUGAGGAUCACCCAUGUAAGAA [EteRNA is fun!]	25.7
AACAAACAUGAGGAUCACCCAUGUCAGGAUAUGCAUAAAUAAAUAAAUAAAUAAAUAAGCAGAAGGGACACAAC [Amethyst 90]	53.3
AGGAAACAUGAGGAUCACCCAUGUAAGGAUAUGAACGAAAAUAAAUAAAAAUAAAAGUUCAGAAGGUACGAAAA [66%, Wbt, 7]	55.1
UAGGUACGAGGAUAUACAUAGAUACAGACACAUGUAGAUGUACAUGAGGAUCACCCAUGUAGAAGGCGUAUAUA [Mat - Same state - Mayanna Mod - D110]	142
AAAAAACAUGAGGAUCACCCAUGUGAGGAUAUGCUGCGAAUAAAGAAAGAAGAAAGCAGCAGAAGGCACACCAA [Amethyst 77]	45.6
AUAAAACAUGAGGAUCACCCAUGUGAGGAUAUGCGAAAUAAAGAAAUAAAUAAAUAAAGCAGAAGGCACAAUAA [Ex 1 Tesla 1]	21.9
AACAAACAUGAGGAUCACCCAUGUGAGGAUAUCGGAUGUACAGCGCAAUUAGAAUUAACGAGAAGGCACACUUA [Ex1_Neo]	22.6
AUCUACCUAGGAUAUACAUGAGGAUCACCCAUGUACAGUUUCAACUAGGGAAACUCACGUAGAAGGAGGUAGAU [JR_Exc003_Sub1209]	25.2
GAAAAGUCAGGAUAUAUAGGAAAAAUAAAAAAAAUAAAACUAUAGAAGGGACAUGAGGAUCACCCAUGUUAAAA [Mat - Exclusion 4 - Mayanna - D131]	24.7
